Positions count from the first letter of the chain named. Names may count otherwise.
T1: FcgRIIb (human, UniProt P31994 43-217)
T1 construct: extracellular domain; also called FcγRIIb; not shown: His tag attached to the C terminus
T1 sequence (looked up): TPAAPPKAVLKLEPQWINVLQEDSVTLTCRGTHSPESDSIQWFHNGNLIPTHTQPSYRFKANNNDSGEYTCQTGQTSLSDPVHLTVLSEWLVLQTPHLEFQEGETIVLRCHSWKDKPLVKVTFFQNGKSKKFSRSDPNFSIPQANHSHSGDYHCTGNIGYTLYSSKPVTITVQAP

T2: FcγRIIb extracellular domain with C-terminal His tag (human, UniProt P31994 43-217)
T2 construct: extracellular domain; Soluble receptor expressed in FreeStyle293 cells, used as analyte in Biacore; also called FcgRIIb; CD32B; not shown: His tag at the C terminus
T2 sequence (looked up): T1 sequence (looked up)

B1: GpH7-A5/GpH7-B3 variant G237_11K/GpL16-k0 (antibody, human IgG1, kappa)
heavy 1: not shown
heavy 2: not shown
light: DIVMTQSPLSLPVTPGEPASISCQASESLVHSNRNTYLHWYLQKPGQSPQLLIYKVSNRFSGVPDRFSGSGSGTDFTLKISRVEAEDVGVYYCSQNTHVPPTFGQGTKVEIERTVAAPSVFIFPPSDEQLKSGTASVVCLLNNFYPREAKVQWKVDNALQSGNSQESVTEQDSKDSTYSLSSTLTLSKADYEKHKVYACEVTHQGLSSPVTKSFNRGEC
notes: Heterodimerized anti-glypican-3 IgG1; substitution in only one H chain; also called G237K; He Ab
B2: GpH7-A5/GpH7-B3 variant P238_02A/GpL16-k0 (antibody, human IgG1, kappa)
heavy 1: not shown
heavy 2: not shown
light: B1 light
notes: Heterodimerized anti-glypican-3 IgG1; substitution in only one H chain; also called P238A; He Ab
B3: GpH7-A5/GpH7-B3 variant P238_14T/GpL16-k0 (antibody, human IgG1, kappa)
heavy 1: not shown
heavy 2: not shown
light: B1 light
notes: Heterodimerized anti-glypican-3 IgG1; substitution in only one H chain; also called P238T; He Ab
B4: GpH7-A5/GpH7-B3 variant P238_13S/GpL16-k0 (antibody, human IgG1, kappa)
heavy 1: not shown
heavy 2: not shown
light: B1 light
notes: Heterodimerized anti-glypican-3 IgG1; substitution in only one H chain; also called P238S; He Ab
B5: GpH7-A5/GpH7-B3 variant G237_16H/GpL16-k0 (antibody, human IgG1, kappa)
heavy 1: not shown
heavy 2: not shown
light: B1 light
notes: Heterodimerized anti-glypican-3 IgG1; substitution in only one H chain; also called G237H; He Ab
B6: GpH7-A5/GpH7-B3 variant G237_12R/GpL16-k0 (antibody, human IgG1, kappa)
heavy 1: not shown
heavy 2: not shown
light: B1 light
notes: Heterodimerized anti-glypican-3 IgG1; substitution in only one H chain; also called G237R; He Ab
B7: GpH7-A5/GpH7-B3 variant P238_11K/GpL16-k0 (antibody, human IgG1, kappa)
heavy 1: not shown
heavy 2: not shown
light: B1 light
notes: Heterodimerized anti-glypican-3 IgG1; substitution in only one H chain; also called P238K; He Ab
B8: GpH7-A5/GpH7-B3 variant G237_14T/GpL16-k0 (antibody, human IgG1, kappa)
heavy 1: not shown
heavy 2: not shown
light: B1 light
notes: Heterodimerized anti-glypican-3 IgG1; substitution in only one H chain; also called G237T; He Ab
B9: GpH7-A5/GpH7-B3 variant P238_07I/GpL16-k0 (antibody, human IgG1, kappa)
heavy 1: not shown
heavy 2: not shown
light: B1 light
notes: Heterodimerized anti-glypican-3 IgG1; substitution in only one H chain; also called P238I; He Ab
B10: GpH7-A5/GpH7-B3 variant P238_01G/GpL16-k0 (antibody, human IgG1, kappa)
heavy 1: not shown
heavy 2: not shown
light: B1 light
notes: Heterodimerized anti-glypican-3 IgG1; substitution in only one H chain; also called P238G; He Ab
B11: GpH7-A5/GpH7-B3 variant P238_12R/GpL16-k0 (antibody, human IgG1, kappa)
heavy 1: not shown
heavy 2: not shown
light: B1 light
notes: Heterodimerized anti-glypican-3 IgG1; substitution in only one H chain; also called P238R; He Ab
B12: H240-Kn061 (W236Y)/H240-Hl071/L73-k0 (antibody, human IgG1, kappa)
heavy 1: QDQLVQSGAEVKKPGASVKVSCKASGFNIKDTYIQWVRQAPGQGLEWMGRIDPLRKQTKYREKFEGRVTITADTSTNTAYMELSSLRSEDTAVYYCVRSGREFDYWGQGTLVTVSSASTKGPSVFPLAPSSKSTSGGTAALGCLVKDYFPEPVTVSWNSGALTSGVHTFPAVLQSSGLYSLSSVVTVPSSSLGTQTYICNVNHKPSNTKVDKKVEPKSCDKTHTCPPCPAPEYYYGPSVFLFPPKPKDTLMISRTPEVTCVVVDVSDEDPEVKFNWYVDGVEVHNAKTKPREEQYNATYRVVSVLTVLHQDWLNGKEYKCKVSNKALPAPIEKTISKAKGQPREPQVCTLPPSRDELTKNQVSLWCLVKGFYPSDIAVEWESNGQPENNYKTTPPVLDSDGSFFLYSKLTVDKSRWQQGNVFSCSVMHEALHNHYTQKSLSLSP
heavy 2: QDQLVQSGAEVKKPGASVKVSCKASGFNIKDTYIQWVRQAPGQGLEWMGRIDPLRKQTKYREKFEGRVTITADTSTNTAYMELSSLRSEDTAVYYCVRSGREFDYWGQGTLVTVSSASTKGPSVFPLAPSSKSTSGGTAALGCLVKDYFPEPVTVSWNSGALTSGVHTFPAVLQSSGLYSLSSVVTVPSSSLGTQTYICNVNHKPSNTKVDKKVEPKSCDKTHTCPPCPAPELLGGPSVFLFPPKPKDTLMISRTPEVTCVVVDVSHEDPEVKFNWYVDGVEVHNAKTKPREEQYNSTYRVVSVLTVLHQDWLNGKEYKCKVSNDALPMPIEETISKAKGQPREPQVYTLPPSRCELTKNQVSLSCAVKGFYPSDIAVEWESNGQPENNYKTTPPVLDSDGSFFLVSKLTVDKSRWQQGNVFSCSVMHEALHNHYTQKSLSLSP
light: DIQMTQSPSSLSASVGDRVTITCRASQDIHKYIAWYQQKPGQAPRLLIQYTSTLQPGVPSRFSGSGSGTDYTFTISSLQPEDIATYYCLQYEQLRTFGGGTKVEIKRTVAAPSVFIFPPSDEQLKSGTASVVCLLNNFYPREAKVQWKVDNALQSGNSQESVTEQDSKDSTYSLSSTLTLSKADYEKHKVYACEVTHQGLSSPVTKSFNRGEC
B13: H240-Kn061 (Y235E)/H240-Hl071/L73-k0 (antibody, human IgG1, kappa)
heavy 1: B12 heavy 1 with Y234E, Y235W
heavy 2: B12 heavy 2
light: B12 light
B14: H240-Kn061 (Y235T)/H240-Hl071/L73-k0 (antibody, human IgG1, kappa)
heavy 1: B12 heavy 1 with Y234T, Y235W
heavy 2: B12 heavy 2
light: B12 light
B15: H240-Kn061 (Y235F)/H240-Hl071/L73-k0 (antibody, human IgG1, kappa)
heavy 1: B12 heavy 1 with Y234F, Y235W
heavy 2: B12 heavy 2
light: B12 light
B16: H240-Kn061 (Y235L)/H240-Hl071/L73-k0 (antibody, human IgG1, kappa)
heavy 1: B12 heavy 1 with Y234L, Y235W
heavy 2: B12 heavy 2
light: B12 light
B17: H240-Kn061 (Y234H)/H240-Hl071/L73-k0 (antibody, human IgG1, kappa)
heavy 1: B12 heavy 1 with Y233H, Y235W
heavy 2: B12 heavy 2
light: B12 light
B18: H240-Kn061 (Y235W)/H240-Hl071/L73-k0 (antibody, human IgG1, kappa)
heavy 1: B12 heavy 1 with Y234W, Y235W
heavy 2: B12 heavy 2
light: B12 light
notes: also called H240-Kn061 Y2351N
B19: H240-Kn061 (Y235N)/H240-Hl071/L73-k0 (antibody, human IgG1, kappa)
heavy 1: B12 heavy 1 with Y234N, Y235W
heavy 2: B12 heavy 2
light: B12 light
B20: H240-Kn061 (Y235M)/H240-Hl071/L73-k0 (antibody, human IgG1, kappa)
heavy 1: B12 heavy 1 with Y234M, Y235W
heavy 2: B12 heavy 2
light: B12 light
B21: H240-Kn061 (Y234A)/H240-Hl071/L73-k0 (antibody, human IgG1, kappa)
heavy 1: B12 heavy 1 with Y233A, Y235W
heavy 2: B12 heavy 2
light: B12 light
B22: H240-Kn061 (Y234S)/H240-Hl071/L73-k0 (antibody, human IgG1, kappa)
heavy 1: B12 heavy 1 with Y233S, Y235W
heavy 2: B12 heavy 2
light: B12 light
B23: H240-Kn061 (Y234G)/H240-Hl071/L73-k0 (antibody, human IgG1, kappa)
heavy 1: B12 heavy 1 with Y233G, Y235W
heavy 2: B12 heavy 2
light: B12 light

molecular target: T3, FcγRIa extracellular domain with C-terminal His tag (human, UniProt P12314 16-292); assay: SPR (Biacore); ratio of He/Con_1a (FcγRIa) to He/Con_2b (FcγRIIb) of the same antibody
T3 construct: extracellular domain; Soluble receptor expressed in FreeStyle293 cells, used as analyte in Biacore; also called FcgRI; CD64; not shown: His tag at the C terminus
T3 sequence (P12314 16-292): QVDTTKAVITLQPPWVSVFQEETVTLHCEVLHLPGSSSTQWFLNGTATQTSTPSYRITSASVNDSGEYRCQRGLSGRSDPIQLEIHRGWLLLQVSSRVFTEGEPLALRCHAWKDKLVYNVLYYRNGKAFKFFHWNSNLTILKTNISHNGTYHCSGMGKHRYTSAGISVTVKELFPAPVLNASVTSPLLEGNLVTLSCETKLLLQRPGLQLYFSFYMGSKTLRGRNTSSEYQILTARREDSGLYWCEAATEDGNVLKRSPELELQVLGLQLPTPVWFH

Ia/IIb He_1a/2b | Binder
7.05 | B1
1.66 | B2
1.8 | B3
1.37 | B4
1.32 | B5
6.71 | B6
4.27 | B7
1.5 | B8
1.24 | B9
1.66 | B10
1.5 | B11

molecular target: T4, FcgRIIIa F (human, UniProt P08637 17-208); assay: SPR (Biacore); KD of H240-Kn061/H240-Hl071/L73-k0 divided by KD of the variant
T4 construct: extracellular domain; also called FcγRIIIa F; 3aF; not shown: His tag attached to the C terminus
Procedure: (§1) The antibodies were assessed for the binding to each FcgR. […] The resultant value was defined as relative KD, and used as an assessment indicator.
(§2) Analysis of interaction between obj ective antibody and the FcγR was carried out using Biacore T100 (GE Healthcare), Biacore T200, Biacore A100, and Biacore 4000. HBS-EP+ (GE Healthcare) was used as the running buffer, and the measurement temperature was set to 25° C. Chips produced by immobilizing the antigen peptide by the amine coupling method to a Series S sensor Chip CM5 (GE Healthcare), chips produced by allowing preliminarily biotinylated antigen peptides to interact with and immobilize onto a Series S Sensor Chip SA (certified) (GE Healthcare), chips produced by immobilizing Protein L (ACTIGEN, BioVision) to Series S Sencor Chip CM5 (GE Healthcare), or chips produced by immobilizing Protein A/G (Thermo Scientific) to Series S Sencor Chip CM5 (GE Healthcare) were used. Antibodies of interest were captured onto these chips, and allowed to interact to each FcγR diluted with running buffer.

T4 sequence (P08637 17-208): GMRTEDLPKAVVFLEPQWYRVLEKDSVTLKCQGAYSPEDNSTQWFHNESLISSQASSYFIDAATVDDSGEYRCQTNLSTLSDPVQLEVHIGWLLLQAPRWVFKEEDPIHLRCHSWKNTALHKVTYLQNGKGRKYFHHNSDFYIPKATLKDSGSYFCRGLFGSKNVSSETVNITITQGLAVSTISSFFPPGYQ

Relative KD | Binder
0.8 | B12
2.2 | B13
0.9 | B14
1.3 | B15
1.8 | B16
0.8 | B17
1.1 | B18
1.3 | B19
1.7 | B20
0.8 | B21
0.9 | B22
0.8 | B23

molecular target: T1, FcgRIIb; assay: as above
Procedure: as §1, §2

Relative KD | Binder
0.8 | B12
0.8 | B13
0.6 | B14
1.2 | B15
0.9 | B16
1.3 | B17
1.3 | B18
0.7 | B19
0.7 | B20
1.2 | B21
1 | B22
0.9 | B23

molecular target: T5, FcgRIIIa V (human, UniProt P08637 17-208); assay: as above
T5 construct: extracellular domain; also called FcγRIIIa V; not shown: His tag attached to the C terminus
Procedure: as §1, §2

T5 sequence (P08637 17-208 F176V limits assumed): as the sequence (P08637 17-208) above, with F160V counted along it

Relative KD | Binder
1.2 | B12
3.2 | B13
1.1 | B14
1.5 | B15
1.5 | B16
0.9 | B17
1.3 | B18
2 | B19
1.8 | B20
0.9 | B21
0.9 | B22
0.9 | B23

molecular target: T2, FcγRIIb extracellular domain with …; assay: SPR (Biacore), antibody captured via antigen peptide, FcγR as analyte; binding relative to GpH7-A5/GpH7-B3/GpL16-k0 = 100

He/Con_2b | Binder
57.4 % of control (GpH7-A5/GpH7-B3/GpL16-k0 = 100) | B2
50.7 % of control (GpH7-A5/GpH7-B3/GpL16-k0 = 100) | B3
70.4 % of control (GpH7-A5/GpH7-B3/GpL16-k0 = 100) | B4
55.2 % of control (GpH7-A5/GpH7-B3/GpL16-k0 = 100) | B5
18.1 % of control (GpH7-A5/GpH7-B3/GpL16-k0 = 100) | B7
54.8 % of control (GpH7-A5/GpH7-B3/GpL16-k0 = 100) | B8
80 % of control (GpH7-A5/GpH7-B3/GpL16-k0 = 100) | B9
56 % of control (GpH7-A5/GpH7-B3/GpL16-k0 = 100) | B10
51.4 % of control (GpH7-A5/GpH7-B3/GpL16-k0 = 100) | B11

molecular target: T3, FcγRIa extracellular domain with …; assay: as above

He/Con_1a | Binder
63.3 % of control (GpH7-A5/GpH7-B3/GpL16-k0 = 100) | B1
95.2 % of control (GpH7-A5/GpH7-B3/GpL16-k0 = 100) | B2
91.1 % of control (GpH7-A5/GpH7-B3/GpL16-k0 = 100) | B3
96.6 % of control (GpH7-A5/GpH7-B3/GpL16-k0 = 100) | B4
72.6 % of control (GpH7-A5/GpH7-B3/GpL16-k0 = 100) | B5
65.8 % of control (GpH7-A5/GpH7-B3/GpL16-k0 = 100) | B6
77.4 % of control (GpH7-A5/GpH7-B3/GpL16-k0 = 100) | B7
82.3 % of control (GpH7-A5/GpH7-B3/GpL16-k0 = 100) | B8
99.1 % of control (GpH7-A5/GpH7-B3/GpL16-k0 = 100) | B9
92.9 % of control (GpH7-A5/GpH7-B3/GpL16-k0 = 100) | B10
77.3 % of control (GpH7-A5/GpH7-B3/GpL16-k0 = 100) | B11
